According to the Human Domainome abundance scans (Beltran et al. 2025):
± gives the uncertainty stated by the source.

B1: POU domain, class 4, transcription factor 1, residues 266 to 347; numbered along this chain, Q01851 (parent)
chain: RELEAFAERFKQRRIKLGVTQADVGSALANLKIPGVGSLSQSTICRFESLTLSHNNMIALKPILQAWLEEAEGAQREKMNKP

Variants of: B1
Test: abundance fitness (aPCA) (normalised: wild type 0, dead -1); higher = more abundant; growth selection in yeast, the domain comes from the species named
Conditions: Homo sapiens

Variant | abundance fitness
RELEAFAERFKQRRIKLGVTQADVLSALANLKIPGVGSLSQSTICRFESLTLSHNNMIALKPILQAWLEEAEGAQREKMNKP [G25L] | -0.038 ± 0.048
RELEAFAERFKQRRIKLGVTQADVMSALANLKIPGVGSLSQSTICRFESLTLSHNNMIALKPILQAWLEEAEGAQREKMNKP [G25M] | -0.009 ± 0.07
RELEAFAERFKQRRIKLGVTQADVNSALANLKIPGVGSLSQSTICRFESLTLSHNNMIALKPILQAWLEEAEGAQREKMNKP [G25N] | -0.117 ± 0.17
RELEAFAERFKQRRIKLGVTQADVQSALANLKIPGVGSLSQSTICRFESLTLSHNNMIALKPILQAWLEEAEGAQREKMNKP [G25Q] | -0.001 ± 0.065
RELEAFAERFKQRRIKLGVTQADVSSALANLKIPGVGSLSQSTICRFESLTLSHNNMIALKPILQAWLEEAEGAQREKMNKP [G25S] | 0.001 ± 0.047
RELEAFAERFKQRRIKLGVTQADVTSALANLKIPGVGSLSQSTICRFESLTLSHNNMIALKPILQAWLEEAEGAQREKMNKP [G25T] | -0.012 ± 0.076
RELEAFAERFKQRRIKLGVTQADVVSALANLKIPGVGSLSQSTICRFESLTLSHNNMIALKPILQAWLEEAEGAQREKMNKP [G25V] | 0.068 ± 0.04
RELEAFAERFKQRRIKLGVTQADVWSALANLKIPGVGSLSQSTICRFESLTLSHNNMIALKPILQAWLEEAEGAQREKMNKP [G25W] | -0.007 ± 0.055
RELEAFAERFKQRRIKLGVTQADVYSALANLKIPGVGSLSQSTICRFESLTLSHNNMIALKPILQAWLEEAEGAQREKMNKP [G25Y] | -0.058 ± 0.087
RELEAFAERFKQRRIKLGVTQADVGAALANLKIPGVGSLSQSTICRFESLTLSHNNMIALKPILQAWLEEAEGAQREKMNKP [S26A] | 0.011 ± 0.045
RELEAFAERFKQRRIKLGVTQADVGCALANLKIPGVGSLSQSTICRFESLTLSHNNMIALKPILQAWLEEAEGAQREKMNKP [S26C] | -0.03 ± 0.064
RELEAFAERFKQRRIKLGVTQADVGDALANLKIPGVGSLSQSTICRFESLTLSHNNMIALKPILQAWLEEAEGAQREKMNKP [S26D] | 0.057 ± 0.068
RELEAFAERFKQRRIKLGVTQADVGFALANLKIPGVGSLSQSTICRFESLTLSHNNMIALKPILQAWLEEAEGAQREKMNKP [S26F] | -0.008 ± 0.078
RELEAFAERFKQRRIKLGVTQADVGGALANLKIPGVGSLSQSTICRFESLTLSHNNMIALKPILQAWLEEAEGAQREKMNKP [S26G] | -0.032 ± 0.039
RELEAFAERFKQRRIKLGVTQADVGHALANLKIPGVGSLSQSTICRFESLTLSHNNMIALKPILQAWLEEAEGAQREKMNKP [S26H] | -0.005 ± 0.13
RELEAFAERFKQRRIKLGVTQADVGKALANLKIPGVGSLSQSTICRFESLTLSHNNMIALKPILQAWLEEAEGAQREKMNKP [S26K] | -0.029 ± 0.062
RELEAFAERFKQRRIKLGVTQADVGLALANLKIPGVGSLSQSTICRFESLTLSHNNMIALKPILQAWLEEAEGAQREKMNKP [S26L] | -0.016 ± 0.05

Variant | abundance fitness
RELEAFAERFKQRRIKLGVTQADVGMALANLKIPGVGSLSQSTICRFESLTLSHNNMIALKPILQAWLEEAEGAQREKMNKP [S26M] | -0.049 ± 0.082
RELEAFAERFKQRRIKLGVTQADVGNALANLKIPGVGSLSQSTICRFESLTLSHNNMIALKPILQAWLEEAEGAQREKMNKP [S26N] | 0.285 ± 0.2
RELEAFAERFKQRRIKLGVTQADVGPALANLKIPGVGSLSQSTICRFESLTLSHNNMIALKPILQAWLEEAEGAQREKMNKP [S26P] | -0.221 ± 0.081
RELEAFAERFKQRRIKLGVTQADVGQALANLKIPGVGSLSQSTICRFESLTLSHNNMIALKPILQAWLEEAEGAQREKMNKP [S26Q] | 0.086 ± 0.087
RELEAFAERFKQRRIKLGVTQADVGRALANLKIPGVGSLSQSTICRFESLTLSHNNMIALKPILQAWLEEAEGAQREKMNKP [S26R] | -0.004 ± 0.039
RELEAFAERFKQRRIKLGVTQADVGTALANLKIPGVGSLSQSTICRFESLTLSHNNMIALKPILQAWLEEAEGAQREKMNKP [S26T] | -0.095 ± 0.06
RELEAFAERFKQRRIKLGVTQADVGVALANLKIPGVGSLSQSTICRFESLTLSHNNMIALKPILQAWLEEAEGAQREKMNKP [S26V] | -0.049 ± 0.044
RELEAFAERFKQRRIKLGVTQADVGWALANLKIPGVGSLSQSTICRFESLTLSHNNMIALKPILQAWLEEAEGAQREKMNKP [S26W] | 0.024 ± 0.055
RELEAFAERFKQRRIKLGVTQADVGYALANLKIPGVGSLSQSTICRFESLTLSHNNMIALKPILQAWLEEAEGAQREKMNKP [S26Y] | 0.126 ± 0.1
RELEAFAERFKQRRIKLGVTQADVGSCLANLKIPGVGSLSQSTICRFESLTLSHNNMIALKPILQAWLEEAEGAQREKMNKP [A27C] | 0.01 ± 0.076
RELEAFAERFKQRRIKLGVTQADVGSDLANLKIPGVGSLSQSTICRFESLTLSHNNMIALKPILQAWLEEAEGAQREKMNKP [A27D] | -0.043 ± 0.081
RELEAFAERFKQRRIKLGVTQADVGSELANLKIPGVGSLSQSTICRFESLTLSHNNMIALKPILQAWLEEAEGAQREKMNKP [A27E] | -0.035 ± 0.049
RELEAFAERFKQRRIKLGVTQADVGSFLANLKIPGVGSLSQSTICRFESLTLSHNNMIALKPILQAWLEEAEGAQREKMNKP [A27F] | -0.284 ± 0.16
RELEAFAERFKQRRIKLGVTQADVGSGLANLKIPGVGSLSQSTICRFESLTLSHNNMIALKPILQAWLEEAEGAQREKMNKP [A27G] | -0.153 ± 0.038
RELEAFAERFKQRRIKLGVTQADVGSHLANLKIPGVGSLSQSTICRFESLTLSHNNMIALKPILQAWLEEAEGAQREKMNKP [A27H] | -0.07 ± 0.12
RELEAFAERFKQRRIKLGVTQADVGSILANLKIPGVGSLSQSTICRFESLTLSHNNMIALKPILQAWLEEAEGAQREKMNKP [A27I] | -0.245 ± 0.17
RELEAFAERFKQRRIKLGVTQADVGSKLANLKIPGVGSLSQSTICRFESLTLSHNNMIALKPILQAWLEEAEGAQREKMNKP [A27K] | -0.058 ± 0.062
